Experimental data published in publication PMC3919607 (Nucleic Acids Research, 2013).

T1: His6Rsa1p230–381 (S. cerevisiae, UniProt Q08932 230-381)
T1 sequence (looked up): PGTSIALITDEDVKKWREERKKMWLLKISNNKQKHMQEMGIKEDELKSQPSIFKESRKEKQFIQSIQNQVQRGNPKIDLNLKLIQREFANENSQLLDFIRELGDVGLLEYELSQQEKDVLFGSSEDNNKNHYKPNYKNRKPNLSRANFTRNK

T2: His6-tagged WT Snu13p (co-expression) (S. cerevisiae, UniProt P39990 1-126)
T2 sequence (looked up): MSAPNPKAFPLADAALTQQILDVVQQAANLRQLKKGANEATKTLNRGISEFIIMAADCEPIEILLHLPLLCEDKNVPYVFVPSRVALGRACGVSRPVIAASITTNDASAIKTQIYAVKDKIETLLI

B1: synthetic peptide Rsa1p238–259 (peptide, UniProt Q08932 238-259, looked up)
peptide: TDEDVKKWREERKKMWLLKISN
B2: Snu13p (recombinant, GST cleaved off) (natural protein, S. cerevisiae)
chain: GPMSAPNPKAFPLADAALTQQILDVVQQAANLRQLKKGANEATKTLNRGISEFIIMAADCEPIEILLHLPLLCEDKNVPYVFVPSRVALGRACGVSRPVIAASITTNDASAIKTQIYAVKDKIETLLI
B3: full-length Rsa1p (co-expression) (natural protein, S. cerevisiae, UniProt Q08932 1-381, looked up)
chain: MNYNNFENSKGDGHSRLPKPTYSGTLSDGYDESKIKRQKTDSAFNAAYSPHMYPNSPYYEGSWNTGYTPQLHHVAPHNQYFHPIQPSTQYNYTSPPNYTENYIPPVHQNISYAPALNLQKWPSSYCENTQALKNDKDYQTSISYEDVAIPTVKEIQLIEKNRGKDTFMNEISPVPSSKDQASAEPTEIPRKDPELANSNAEDDHNNLGLEDDDRDEQLESEGLGKVVLVPGTSIALITDEDVKKWREERKKMWLLKISNNKQKHMQEMGIKEDELKSQPSIFKESRKEKQFIQSIQNQVQRGNPKIDLNLKLIQREFANENSQLLDFIRELGDVGLLEYELSQQEKDVLFGSSEDNNKNHYKPNYKNRKPNLSRANFTRNK

Key:
[1] = target: B2; assay: ITC
[2] = target: T1, His6Rsa1p230–381; assay: native gel or EMSA
[3] = target: T2, His6-tagged WT Snu13p (co-expression); assay: pull-down

Binder: B1
- Kd [1]: 18 ± 1 µM

Binder: B2
- binding result [2]: binds

Binder: B3
- stoichiometry N [3]: ~1
